Test results reported in patent US7179886B1, “Cloning and identification of the motilin receptor” (Merck & Co., Inc., priority 1999, dated 2007).
No end group written: not given here. *: point of attachment. 125I = [125I]*

Legend:
[1] = target: T1, Cloned MTL-1A Receptor (human) (Homo sapiens, UniProt O43193); test: Aequorin bioluminescence assay in HEK-293/aeq17 cells transfected with MTL-R1A; type: cell-based; conditions: for EC50: HEK-293/aeq17 cells transfected with human MTL-R1A; for activity in MTL1-A functional and binding assays: high (10 μM) doses, statement covers functional and binding assays
T1 construct: The full length open reading frame appears to contain 412 amino acids; expressed in transfected cells; host or cells: HEK-293/aeq17 (293-AEQ17), transient transfection with lipofectamine
T1 sequence (O43193 whole entry): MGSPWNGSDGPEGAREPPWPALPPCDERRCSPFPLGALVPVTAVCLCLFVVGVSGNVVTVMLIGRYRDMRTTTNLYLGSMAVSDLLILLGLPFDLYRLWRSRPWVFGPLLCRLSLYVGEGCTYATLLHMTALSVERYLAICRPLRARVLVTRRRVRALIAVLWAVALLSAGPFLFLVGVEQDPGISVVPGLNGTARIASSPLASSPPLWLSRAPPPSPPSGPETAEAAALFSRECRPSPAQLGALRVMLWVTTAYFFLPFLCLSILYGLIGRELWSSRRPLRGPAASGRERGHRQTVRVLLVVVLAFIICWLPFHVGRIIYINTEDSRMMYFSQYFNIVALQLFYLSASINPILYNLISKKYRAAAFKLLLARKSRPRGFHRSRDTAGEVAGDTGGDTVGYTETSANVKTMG
From the text: A high-throughput assay was developed which measures Ca^2+realease with the bioluminescent Ca^2+sensitive-aequorin reporter protein (capable of measuring ligand-induced IP3-coupled mobilization of intracellular calcium and concomitant calcium-induced aequorin bioluminescence). […] The DNA and deduced amino acid sequence are given in SEQ. ID. NO.:2 and SEQ. ID. NO.:3, respectively.
To identify a ligand for this orphan GPCR and to determine whether the full length, 7 TM domain GPR38-A is a functional GPCR, a high-throughput assay was developed which measures Ca^2+ release with the bioluminescent Ca^2+ sensitive aequorin reporter protein (capable of measuring ligand-induced IP3-coupled mobilization of intracellular calcium and concomitant calcium-induced aequorin bioluminescence).
A broad set of peptide and non-peptide molecules was tested at a single concentration in transiently transfected HEK-293/aeq17 cells (100 nM peptide, 10 μM non-peptide).
The aequorin bioluminescence assay is a reliable test for identifying G protein-coupled receptors which couple through the Gα protein subunit family consisting of Gq and G11 which leads to the activation of phospholipase C, mobilization of intracellular calcium and activation of protein kinase C. Measurement of MTL-1A expression in the aequorin-expressing stable reporter cell line 293-AEQ17 (Button, D. et. al., 1993 Cell Calcium 14: p. 663–671.) was performed using a Luminoskan RT luminometer (Labsystems Inc., Gaithersburg, Md.).
293-AEQ17 cells (8×10^5 cells plated 18 hrs. before transfection in a T75 flask) were transfected with 22 μg of human MTL-R1A plasmid DNA: 264 μg lipofectamine. Following approximately 40 hours of expression the apo-aequorin in the cells was charged for 4 hours with coelenterazine (10 μM) under reducing conditions (300 μM reduced glutathione) in ECB buffer (140 mM NaCl, 20 mM KCl, 20 mM HEPES—NaOH [pH=7.4], 5 mM glucose, 1 mM MgCl2, 1 mM CaCl2, 0.1 mg/ml bovine serum albumin). The cells were harvested, washed once in ECB medium and resuspended to 500,000 cells/ml. 100 μl of cell suspension (corresponding to 5×10^4 cells) was then injected into the test plate, and the integrated light emission was recorded over 30 seconds, in 0.5 second units. 20 μL of lysis buffer (0.1% final Triton X-100 concentration) was then injected and the integrated light emission recorded over 10 seconds, in 0.5 second units. The “fractional response” values for each well were calculated by taking the ratio of the integrated response to the initial challenge to the total integrated luminescence including the Triton X-100 lysis response.

[2] = target: T1, Cloned MTL-1A Receptor (human); test: [^125I] human motilin binding to crude membranes from HEK-293/aeq17 cells transfected with MTL-R1A cDNA; conditions: for IC50: competition binding, crude membranes, 20° C. for 1 hr., read-out: [^125I] hmotilin binding (IC50)
Protocol: Crude cell membranes were prepared on ice, 48 hrs. post-transfection. […] Bound radioligand was separated by rapid vacuum filtration (Brandel 48-well cell harvester) through GF/C filters pretreated for 1 hr. with 0.5% polyethylenimine.

[3] = system: cells that were not transfected with the MTL-R1A cDNA expression vector; test: Aequorin bioluminescence assay in non-transfected cells; type: cell-based, human; conditions: concentrations as high as 10 μM
[4] = target: T2, motilin receptor spliced form A (MTL-R1A), human (human, UniProt O43193 1-412); test: cell-based or functional assay
T2 sequence (O43193 whole entry, canonical isoform): as the sequence (O43193 whole entry) above

[5] = target: T2, motilin receptor spliced form A …; test: displacement of [125I] human motilin from crude membranes of MTL-R1A transfected HEK-293/aeq17 cells
Protocol: Crude cell membranes were prepared on ice, 48 hrs. post-transfection. Each T-75 flask was washed twice with 10 ml of PBS, once with 1 ml homogenization buffer (50 mM Tris-HCl [pH 7.4], 10 mM MgCl_2. 10 ml of homogenization buffer was added to each flask, cells were removed by scraping and then homogenized using a Polytron device (Brinkmann, Syosset, N.Y.; 3 bursts of 10 sec. at setting 4). The homogenate was centrifuged for 20 min. at 11,000×g at 0° C. and the resulting crude membrane pellet (chiefly containing cell membranes and nuclei) was resuspended in homogenization buffer supplemented with 1.5% BSA (0.5 ml T75 flask) and kept on ice.
Bound radioligand was separated by rapid vacuum filtration (Brandel 48-well cell harvester) through GF/C filters pretreated for 1 hr. with 0.5% polyethylenimine. After application of the membrane suspension to the filter, the filters were washed 3 times with 3 ml each of ice-cold 50 mM Tris-HCl [pH 7.4], 10 mM MgCl_2, and the bound radioactivity on the filters was quantitated by gamma counting. […] Competition binding data were analyzed by a non-linear curve-fitting program (Prism V, version 2.0; GraphPad Software, San Diego, Calif.).

[6] = target: T2, motilin receptor spliced form A …; test: cell-based or functional assay; remark: listed apart in the source
[7] = target: T2, motilin receptor spliced form A …; test: direct radioligand binding on cell membranes from transfected cells

Aequorin Assay (EC50 nM) [4] [nM] | IC50 [5] [nM] | Molecule | further results
– | – | CCN(CC)CCNC(=O)c1cc(Cl)c(N)cc1OC [metoclopramide] | EC50 [1]: > 10000 nM; activity in MTL1-A functional and binding assays [1]: inactive; IC50 [2]: > 10000 nM
– | – | CC[C@H]1OC(=O)[C@H](C)[C@@H](O[C@H]2C[C@@](C)(OC)[C@@H](O)[C@H](C)O2)[C@H](C)[C@@H](O[C@@H]2O[C@H](C)C[C@H](N(C)C)[C@H]2O)[C@](C)(O)C[C@@H](C)/C(=N\OCOCCOC)[C@H](C)[C@@H](O)[C@]1(C)O [roxithromycin] | EC50 [1]: 1950 nM; IC50 [2]: 613 nM
– | – | FVPIFTHSELQKIREKERNKGQ [canine motilin] | IC50 [2]: 0.2 nM
– | – | Nc1nc2c(ncn2[C@@H]2O[C@H](COP(=O)(O)OP(=O)(O)OP(O)(O)=S)[C@@H](O)[C@H]2O)c(=O)[nH]1 [GTPγS] | inhibition of [^125I] human motilin binding ([2]; 100 nM GTPγS): > 80%
– | – | CC[C@H](C)[C@H](NC(=O)[C@@H]1CCCN1C(=O)[C@@H](NC(=O)[C@@H](N)Cc1ccccc1)C(C)C)C(=O)N[C@@H](Cc1ccccc1)C(=O)N[C@H](C(=O)N[C@@H](Cc1ccc(O)cc1)C(=O)NCC(=O)N[C@@H](CCC(=O)O)C(=O)N[C@@H](CC(C)C)C(=O)N[C@@H](CCC(N)=O)C(=O)N[C@@H](CCCNC(=N)N)C(=O)N[C@@H](CCSC)C(=O)N[C@@H](CCC(N)=O)C(=O)N[C@@H](CCC(=O)O)C(=O)N[C@@H](CCCCN)C(=O)N[C@@H](CCC(=O)O)C(=O)N[C@@H](CCCNC(=N)N)C(=O)N[C@@H](CC(N)=O)C(=O)N[C@@H](CCCCN)C(=O)NCC(=O)N[C@@H](CCC(N)=O)C(=O)O)[C@@H](C)O [human motilin] | bioluminescent response in non-transfected cells [3]: no bioluminescent response above background levels
– | – | COc1cc(N)c(Cl)cc1C(=O)NC1CCN(CCCOc2ccc(F)cc2)CC1OC (centres unmarked) [cisapride] | EC50 [1]: > 10000 nM; activity in MTL1-A functional and binding assays [1]: inactive; IC50 [2]: > 10000 nM
72 | 14 | FVPIFTYGELQR (peptide, UniProt P12872 26-37, looked up, range 1-12; The range counts on mature motilin, not on the precursor entry) [1-12 MTL] | –
138 | 127 | FVPIFTYGELQ (peptide, UniProt P12872 26-36, looked up, range 1-11; The range counts on mature motilin, not on the precursor entry) [1-11 MTL] | –
3.8 | 0.9 | FVPIFTYGELQRM (peptide, UniProt P12872 26-38, looked up, range 1-13; The range counts on mature motilin, not on the precursor entry) [1-13 MTL] | –
– | – | FVPIFTYGELQRMQEKERNKGQ (peptide, UniProt P12872 26-47, looked up) [human motilin] | bioluminescent response (aequorin assay, 100 nM peptide, transfected HEK-293/aeq17 cells) [6]: > 4 fold over background
4.4 | – | FVPIFTHSELQKIREKERNKGQ (peptide, UniProt P19863 1-22, looked up) [canine motilin] | –
– | – | FVPIFTY(125I)GELQRMQEKERNKGQ (peptide, UniProt P12872 26-47, looked up, mature) [[125I]-Tyr7-human motilin] | Kd [7]: 0.1 nM
3.9 | 0.2 | FVPIFTYGELQRLQEKERNKGQ (peptide, UniProt P12872 26-47, looked up, mature; Position 13 counts on the mature peptide, not on the precursor) [Leu13 MTL] | –
> 10000 | 1100 | LQRMQEKERNKGQ (peptide, UniProt P12872 35-47, looked up, range 10-22; The range counts on mature motilin, not on the precursor entry) [10-22 MTL] | –
4.1 | 0.3 | FVPIFTYGELQRMQEKERN (peptide, UniProt P12872 26-44, looked up, range 1-19; The range counts on mature motilin, not on the precursor entry) [1-19 MTL] | –
